The target of assay [1] is T1, B cell maturation antigen (BCMA) (UniProt Q02223 1-184, limits assumed).
T1 sequence (looked up): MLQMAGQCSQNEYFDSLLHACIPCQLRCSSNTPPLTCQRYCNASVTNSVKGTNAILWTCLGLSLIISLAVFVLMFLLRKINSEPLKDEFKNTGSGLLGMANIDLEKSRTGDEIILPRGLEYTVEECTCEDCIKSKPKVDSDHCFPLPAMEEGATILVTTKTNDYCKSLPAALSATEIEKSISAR
Briefly: cell-based or functional assay.

Assay [2] deals with T1, B cell maturation antigen (BCMA). Briefly: cell-based or functional assay. The source holds these as a separate data set.
In assay [3] the target is T2, CD33 (human, UniProt P20138 18-364).
T2 construct: whole, on cells; also called CD33 on MOLM-13, Kasumi-1, OCI-AML-3 and Kasumi-3 cells
The assay can be described thus: FACS binding to MOLM-13 cells (CD33 high), MFI.

Assay [4] has as its target T2, CD33. Briefly: FACS binding to OCI-AML-3 cells (CD33 low), MFI.
The target in assay [5] is T2, CD33. The assay can be described thus: FACS binding to Kasumi-1 cells (CD33 med), MFI.
The target of assay [6] is T3, CD123 (human, UniProt P26951 19-378).
T3 construct: whole, on cells; also called IL3RA; interleukin-3 receptor
Briefly: flow cytometry, % binding of bispecific antibody to Kasumi-3 cells (CD123 expressing). An excerpt: (§1) Cells were visualized on forward and sideward scatter and doublets were excluded. No secondary antibody control was used to establish background fluorescence and to gate on specific population. Background value was subtracted from main samples to get specific binding value.

Assay [7] deals with T3, CD123. The assay can be described thus: flow cytometry, % Binding; graph under the Kasumi-3 histogram, Kasumi-3 cells by legend paragraph 83.
From the text: as §1

The target of assay [8] is T3, CD123. Briefly: flow cytometry, % Binding on Kasumi-3 cells (TAA expressing cell line); same graph as FIG. 30A.
From the text: as §1

The target in assay [9] is T3, CD123. Briefly: flow cytometry, % Binding on Kasumi-3 cells (CD123 expressing cell line).
From the text: as §1

Assay [10] concerns the target T1, B cell maturation antigen (BCMA). The assay can be described thus: cell-based or functional assay. This is another data set of the same source.
The target is the same in assay [11]. The assay can be described thus: cell-based or functional assay. This is another data set of the same source.
Assay [12] shares this target. The assay can be described thus: cell-based or functional assay. The source holds these as a separate data set.

Where two headings read alike, the source gives them in different places.

T2 sequence (P20138 18-364): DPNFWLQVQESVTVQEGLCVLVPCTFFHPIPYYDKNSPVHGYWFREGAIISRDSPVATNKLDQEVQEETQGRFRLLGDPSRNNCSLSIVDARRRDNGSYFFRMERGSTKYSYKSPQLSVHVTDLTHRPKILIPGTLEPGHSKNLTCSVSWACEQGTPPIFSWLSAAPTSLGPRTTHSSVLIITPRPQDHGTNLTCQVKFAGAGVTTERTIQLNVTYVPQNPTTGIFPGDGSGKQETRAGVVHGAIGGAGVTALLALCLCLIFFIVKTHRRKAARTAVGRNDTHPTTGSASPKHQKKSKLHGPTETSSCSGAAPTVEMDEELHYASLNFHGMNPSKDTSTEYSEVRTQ
T3 sequence (P26951 19-378): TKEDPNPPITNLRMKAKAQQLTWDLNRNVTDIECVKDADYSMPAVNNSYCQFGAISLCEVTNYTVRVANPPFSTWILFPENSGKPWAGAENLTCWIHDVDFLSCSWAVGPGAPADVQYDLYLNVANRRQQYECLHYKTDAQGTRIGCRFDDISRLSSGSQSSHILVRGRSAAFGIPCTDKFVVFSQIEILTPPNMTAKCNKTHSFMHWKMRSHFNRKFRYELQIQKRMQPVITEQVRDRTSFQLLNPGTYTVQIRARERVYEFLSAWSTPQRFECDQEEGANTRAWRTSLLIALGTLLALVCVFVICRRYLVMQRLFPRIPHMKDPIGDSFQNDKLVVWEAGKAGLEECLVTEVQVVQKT

B1: anti-TRGV9/anti-BCMA bispecific antibody (VG9SB10SC1087_P18_D08-Fab RF, BCMA-scFv (BCMB519-scFv)) (BCV9B100.001) (bispecific antibody, human IgG1, kappa, L234A L235A)
heavy: EVQLVQSGAEVKKPGSSVKVSCKASGDTFNNYAISWVRQAPGQGLEWMGGIIPFFGTPDYAQKFQGRVTITADKSTSTAYMELSGLRSEDTAVYYCARPGSGSPDYYYYDMDVWGQGTTVTVSSASTKGPSVFPLAPSSKSTSGGTAALGCLVKDYFPEPVTVSWNSGALTSGVHTFPAVLQSSGLYSLSSVVTVPSSSLGTQTYICNVNHKPSNTKVDKKVEPKSCDKTHTCPPCPAPEAAGGPSVFLFPPKPKDTLMISRTPEVTCVVVSVSHEDPEVKFNWYVDGVEVHNAKTKPREEQYNSTYRVVSVLTVLHQDWLNGKEYKCKVSNKALPAPIEKTISKAKGQPREPQVYVYPPSREEMTKNQVSLTCLVKGFYPSDIAVEWESNGQPENNYKTTPPVLDSDGSFALVSKLTVDKSRWQQGNVFSCSVMHEALHNRFTQKSLSLSPGK
light: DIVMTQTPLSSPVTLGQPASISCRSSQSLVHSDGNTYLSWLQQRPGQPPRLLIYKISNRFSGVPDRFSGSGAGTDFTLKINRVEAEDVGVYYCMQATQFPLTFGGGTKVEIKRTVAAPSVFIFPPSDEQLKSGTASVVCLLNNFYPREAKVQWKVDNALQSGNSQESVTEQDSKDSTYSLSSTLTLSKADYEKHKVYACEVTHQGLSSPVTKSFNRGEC
scFv: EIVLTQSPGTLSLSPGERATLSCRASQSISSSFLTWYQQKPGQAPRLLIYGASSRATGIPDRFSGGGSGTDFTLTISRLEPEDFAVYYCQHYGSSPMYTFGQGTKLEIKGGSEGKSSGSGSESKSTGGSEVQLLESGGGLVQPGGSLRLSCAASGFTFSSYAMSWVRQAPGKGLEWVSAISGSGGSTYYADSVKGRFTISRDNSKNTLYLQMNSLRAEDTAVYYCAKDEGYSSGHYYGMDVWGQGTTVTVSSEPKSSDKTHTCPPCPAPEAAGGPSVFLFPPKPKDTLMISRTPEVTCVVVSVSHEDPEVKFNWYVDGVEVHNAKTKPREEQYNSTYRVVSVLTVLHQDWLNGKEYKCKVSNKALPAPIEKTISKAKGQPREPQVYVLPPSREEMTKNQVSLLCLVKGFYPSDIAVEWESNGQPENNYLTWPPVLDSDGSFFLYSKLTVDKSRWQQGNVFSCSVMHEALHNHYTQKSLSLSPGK
Take B1: in assay [1], the “EC50 of γδ T-cell mediated cytotoxicity of H929 tumor cells” value turned out to be 0.81 nM.

B2: anti-TRGV9/anti-BCMA bispecific antibody (VG9SB10SC1087_P19_C03-Fab RF, BCMA-scFv (BCMB519-scFv)) (BCV9B103.001) (bispecific antibody, human IgG1, kappa, L234A L235A)
heavy: QVQLQESGPGLVKPSQTLSLTCTVSGGSISSGGSYWSWIRQHPGKGLEWIGYIYNSGSTYYNPSLKSRVSMSVDTSKNQFSLKLSSVTAADTAVYYCARDSNYEWFFDLWGPGTLVTVSSASTKGPSVFPLAPSSKSTSGGTAALGCLVKDYFPEPVTVSWNSGALTSGVHTFPAVLQSSGLYSLSSVVTVPSSSLGTQTYICNVNHKPSNTKVDKKVEPKSCDKTHTCPPCPAPEAAGGPSVFLFPPKPKDTLMISRTPEVTCVVVSVSHEDPEVKFNWYVDGVEVHNAKTKPREEQYNSTYRVVSVLTVLHQDWLNGKEYKCKVSNKALPAPIEKTISKAKGQPREPQVYVYPPSREEMTKNQVSLTCLVKGFYPSDIAVEWESNGQPENNYKTTPPVLDSDGSFALVSKLTVDKSRWQQGNVFSCSVMHEALHNRFTQKSLSLSPGK
light: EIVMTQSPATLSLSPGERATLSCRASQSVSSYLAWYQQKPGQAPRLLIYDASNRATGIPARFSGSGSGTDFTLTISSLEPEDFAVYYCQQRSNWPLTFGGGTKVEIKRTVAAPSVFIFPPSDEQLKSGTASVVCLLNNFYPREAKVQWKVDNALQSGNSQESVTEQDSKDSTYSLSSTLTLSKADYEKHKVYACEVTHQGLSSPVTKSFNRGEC
scFv: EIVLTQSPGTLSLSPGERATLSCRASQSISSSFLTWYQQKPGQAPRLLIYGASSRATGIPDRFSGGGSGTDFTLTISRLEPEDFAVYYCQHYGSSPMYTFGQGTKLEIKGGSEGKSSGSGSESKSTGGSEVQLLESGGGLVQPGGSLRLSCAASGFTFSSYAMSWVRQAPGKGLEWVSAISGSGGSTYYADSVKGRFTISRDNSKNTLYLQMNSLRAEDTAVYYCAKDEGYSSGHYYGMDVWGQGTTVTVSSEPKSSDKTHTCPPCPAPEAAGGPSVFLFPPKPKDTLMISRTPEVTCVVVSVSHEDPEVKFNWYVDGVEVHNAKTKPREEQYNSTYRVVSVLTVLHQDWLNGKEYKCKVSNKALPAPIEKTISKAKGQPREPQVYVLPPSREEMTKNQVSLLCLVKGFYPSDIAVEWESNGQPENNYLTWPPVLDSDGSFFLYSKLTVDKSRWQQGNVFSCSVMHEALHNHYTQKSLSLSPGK
Regarding B2, in assay [2], the “EC50 of γδ T-cell mediated cytotoxicity of H929 tumor cells” value came to 5.84 nM.

B3: anti-CD33 antibody (clone C33B904) (antibody, V domains shown)
VH: EVQLVESGGGLVQPGRSLRLSCAASGFTFDDYAMHWVRQAPGKGLEWVSGIGWSGGSIVYADSVKGRFTISRDNAKNSLYLQMNSLRAEDTALYYCAKDSPYGDFFDYWGQGTLVTVSS
VL: DIVMTQSPDSLAVSLGERATINCKSSQTVFYSSNNKNYLAWYQQKPGQPPKLLISWASTRKSGVPDRFSGSGSGTDFTLTVSSLQAEDVAVYYCQHYYSTPYTFGQGTKLEIK
Turning to B3, the EC50 was approximately 134 nM with CD33 [3], 16.4 nM with CD33 [4] and 82.2 nM with CD33 [5].

B4: VG1 (anti-TRGV9/anti-CD123 bispecific antibody) (bispecific antibody, human IgG4 S228P, kappa, F234A L235A)
heavy 1: EVQLQQSGAELARPGASVKLSCKASGFTFTDHYINWVKQRTGQGLEWIGQIYPGDGNTYYNQKFKGKATLTADKSSSTAYMQLSSLTSEDSAVYFCAPNYGDYTIDFWGQGTSVTVSSASTKGPSVFPLAPCSRSTSESTAALGCLVKDYFPEPVTVSWNSGALTSGVHTFPAVLQSSGLYSLSSVVTVPSSSLGTKTYTCNVDHKPSNTKVDKRVESKYGPPCPPCPAPEAAGGPSVFLFPPKPKDTLMISRTPEVTCVVVDVSQEDPEVQFNWYVDGVEVHNAKTKPREEQFNSTYRVVSVLTVLHQDWLNGKEYKCKVSNKGLPSSIEKTISKAKGQPREPQVYTLPPSQEEMTKNQVSLSCAVKGFYPSDIAVEWESNGQPENNYKTTPPVLDSDGSFFLVSRLTVDKSRWQEGNVFSCSVMHEALHNRFTQKSLSLSLGK
light 1: DIVMSQSPSSLAVSVGEKVTMSCKSSQSLLYSSNQKNYLAWYQQKPGQSPKLLIYWASTRESGVPDRFTGSGSGTDFTLTISSVKAEDLAVYYCQQYYRYHTFGTGTKLEIKRTVAAPSVFIFPPSDEQLKSGTASVVCLLNNFYPREAKVQWKVDNALQSGNSQESVTEQDSKDSTYSLSSTLTLSKADYEKHKVYACEVTHQGLSSPVTKSFNRGEC
heavy 2: EVQLVQSGAEVKKPGESLKISCKGSGYSFTSYWISWVRQMPGKGLEWMGIIDPSDSDTRYSPSFQGQVTISADKSISTAYLQWSSLKASDTAMYYCARGDGSTDLDYWGQGTLVTVSSASTKGPSVFPLAPCSRSTSESTAALGCLVKDYFPEPVTVSWNSGALTSGVHTFPAVLQSSGLYSLSSVVTVPSSSLGTKTYTCNVDHKPSNTKVDKRVESKYGPPCPPCPAPEAAGGPSVFLFPPKPKDTLMISRTPEVTCVVVDVSQEDPEVQFNWYVDGVEVHNAKTKPREEQFNSTYRVVSVLTVLHQDWLNGKEYKCKVSNKGLPSSIEKTISKAKGQPREPQVYTLPPSQEEMTKNQVSLWCLVKGFYPSDIAVEWESNGQPENNYKTTPPVLDSDGSFFLYSRLTVDKSRWQEGNVFSCSVMHEALHNHYTQKSLSLSLGK
light 2: EIVLTQSPGTLSLSPGERATLSCRASQSVSSSYLAWYQQKPGQAPRLLIYGASSRATGIPDRFSGSGSGTDFTLTISRLEPEDFAVYYCQQDYGFPWTFGQGTKVEIKRTVAAPSVFIFPPSDEQLKSGTASVVCLLNNFYPREAKVQWKVDNALQSGNSQESVTEQDSKDSTYSLSSTLTLSKADYEKHKVYACEVTHQGLSSPVTKSFNRGEC
notes: Full-length human IgG4 in knob-into-hole format; also called anti-TRGV9×CD123; Vγ9/CD123 bispecific
With B4, the EC50 in the assay with CD123 [6] amounted to 0.354 nM; with CD123 [7] it was 0.354 nM; with CD123 [8] it was 0.43 nM; in the assay with CD123 [9] it was 0.43 nM. For the same molecule, the “EC50 (read off the curve)” value with CD123 [6] is approximately 0.05 µg/mL.

B5: anti-TRGV9/anti-BCMA bispecific antibody (VG9SB10SC1087_P18_C12-Fab RF, BCMA-scFv (BCMB519-scFv)) (BCV9B101.001) (bispecific antibody, human IgG1, kappa, L234A L235A)
heavy: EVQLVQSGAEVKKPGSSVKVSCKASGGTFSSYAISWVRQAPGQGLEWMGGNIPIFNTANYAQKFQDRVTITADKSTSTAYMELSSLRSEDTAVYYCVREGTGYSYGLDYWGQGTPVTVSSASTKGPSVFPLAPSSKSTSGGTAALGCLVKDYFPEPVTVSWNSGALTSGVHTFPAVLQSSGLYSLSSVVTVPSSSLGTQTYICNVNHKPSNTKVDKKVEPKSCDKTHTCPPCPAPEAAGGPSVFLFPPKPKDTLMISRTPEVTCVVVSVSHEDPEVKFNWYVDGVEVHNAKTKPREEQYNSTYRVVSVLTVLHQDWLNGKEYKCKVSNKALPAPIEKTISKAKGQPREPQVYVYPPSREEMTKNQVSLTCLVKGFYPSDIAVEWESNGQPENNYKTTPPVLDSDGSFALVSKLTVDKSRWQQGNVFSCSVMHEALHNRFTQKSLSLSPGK
light: EIVMTQSPLSSPVTLGQPASISCRSSQSLIHSDGNTYLSWLQQRPGQPPRLLIYKISNRFSGVPDRFSGSGAGTDFTLKISRVEAEDVGIYYCMQAKQFPITFGQGTKVDIKRTVAAPSVFIFPPSDEQLKSGTASVVCLLNNFYPREAKVQWKVDNALQSGNSQESVTEQDSKDSTYSLSSTLTLSKADYEKHKVYACEVTHQGLSSPVTKSFNRGEC
scFv: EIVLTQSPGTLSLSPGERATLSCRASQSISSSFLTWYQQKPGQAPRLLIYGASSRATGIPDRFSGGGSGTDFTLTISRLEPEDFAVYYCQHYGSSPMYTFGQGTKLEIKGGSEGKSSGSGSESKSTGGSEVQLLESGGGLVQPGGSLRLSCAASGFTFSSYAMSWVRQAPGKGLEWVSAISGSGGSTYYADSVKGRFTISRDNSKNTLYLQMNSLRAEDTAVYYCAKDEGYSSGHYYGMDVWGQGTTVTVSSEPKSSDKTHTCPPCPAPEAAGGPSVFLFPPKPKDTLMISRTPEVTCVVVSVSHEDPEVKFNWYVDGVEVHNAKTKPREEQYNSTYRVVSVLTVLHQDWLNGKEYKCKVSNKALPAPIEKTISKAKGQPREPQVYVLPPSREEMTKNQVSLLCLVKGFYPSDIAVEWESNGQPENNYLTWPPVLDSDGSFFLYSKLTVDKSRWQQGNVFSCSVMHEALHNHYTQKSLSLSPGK
In the case of B5, in [10], the “EC50 of γδ T-cell mediated cytotoxicity of H929 tumor cells” value was found to be 2.65 nM.

B6: anti-TRGV9/anti-BCMA bispecific antibody BCV9B106 (B3) (bispecific antibody, human IgG1, kappa, L234A L235A)
scFv-Fc: DIQMTQSPASLSASVGETVTITCRASENIHNYLAWYQQKQGKSPQLLVYNAKTLADGVPSRFSGSGSGTQYSLKINSLQPEDFGNYYCQHFWSYPLTFGAGTKLELKGGSEGKSSGSGSESKSTGGSQGQMQQSGAELVKPGASVKLSCKTSGFTFSSNYISWLKQKPGQSLEWIAWIHGGTGGIGYNQKFTGKAQLTVDTSSTTAYMQFSSLTTEDSAIYYCARRGYGAWFAYWGQGTLVTVSAEPKSSDKTHTCPPCPAPEAAGGPSVFLFPPKPKDTLMISRTPEVTCVVVSVSHEDPEVKFNWYVDGVEVHNAKTKPREEQYNSTYRVVSVLTVLHQDWLNGKEYKCKVSNKALPAPIEKTISKAKGQPREPQVYVYPPSREEMTKNQVSLTCLVKGFYPSDIAVEWESNGQPENNYKTTPPVLDSDGSFALVSKLTVDKSRWQQGNVFSCSVMHEALHNHYTQKSLSLSPGK
heavy: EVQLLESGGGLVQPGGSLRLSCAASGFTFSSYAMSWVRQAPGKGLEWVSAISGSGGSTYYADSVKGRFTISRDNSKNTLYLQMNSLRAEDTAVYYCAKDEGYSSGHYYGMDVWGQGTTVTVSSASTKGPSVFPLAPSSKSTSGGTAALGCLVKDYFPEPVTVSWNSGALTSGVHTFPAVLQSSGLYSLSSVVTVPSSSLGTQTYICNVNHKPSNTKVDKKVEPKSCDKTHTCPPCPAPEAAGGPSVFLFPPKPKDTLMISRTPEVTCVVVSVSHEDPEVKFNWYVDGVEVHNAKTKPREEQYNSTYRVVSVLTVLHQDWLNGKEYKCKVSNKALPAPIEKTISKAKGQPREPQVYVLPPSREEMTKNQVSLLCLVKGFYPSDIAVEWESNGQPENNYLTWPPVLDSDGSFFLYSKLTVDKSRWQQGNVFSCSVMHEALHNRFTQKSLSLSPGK
light: EIVLTQSPGTLSLSPGERATLSCRASQSISSSFLTWYQQKPGQAPRLLIYGASSRATGIPDRFSGGGSGTDFTLTISRLEPEDFAVYYCQHYGSSPMYTFGQGTKLEIKRTVAAPSVFIFPPSDEQLKSGTASVVCLLNNFYPREAKVQWKVDNALQSGNSQESVTEQDSKDSTYSLSSTLTLSKADYEKHKVYACEVTHQGLSSPVTKSFNRGEC
As to B6, the “EC50 of γδ T-cell mediated cytotoxicity of H929 tumor cells” value in assay [11] came to 33.7 nM.

B7: anti-TRGV9/anti-BCMA bispecific antibody (HC1: VG9B420-LH-scFv; HC2: BCMA-Fab (BCMB519-Fab)) (BCV9B71.001) (bispecific antibody, human IgG1, kappa, L234A L235A)
scFv: EIVMTQSPGTLSLSPGDRATLSCRASQSVASSYLAWYQQKPGQSPRLLIYGASSRATGIPDRFSGSGSGTDFTLTISRLEPEDFAVYYCQQYGSSPPYTFGQGTRLEIKGGSEGKSSGSGSESKSTGGSEVQLVESGGGLVKPGGSLRLSCSASGFTFSNYDMNWVRQAPGKGLEWVSSISSSSSYIYYADSVKGRFTISRDNAKNSLYLQMNSLRAEDTAVYHCARDVGVTTDYYYYGMDVWGQGTMVTVSSEPKSSDKTHTCPPCPAPEAAGGPSVFLFPPKPKDTLMISRTPEVTCVVVSVSHEDPEVKFNWYVDGVEVHNAKTKPREEQYNSTYRVVSVLTVLHQDWLNGKEYKCKVSNKALPAPIEKTISKAKGQPREPQVYVYPPSREEMTKNQVSLTCLVKGFYPSDIAVEWESNGQPENNYKTTPPVLDSDGSFALVSKLTVDKSRWQQGNVFSCSVMHEALHNHYTQKSLSLSPGK
heavy: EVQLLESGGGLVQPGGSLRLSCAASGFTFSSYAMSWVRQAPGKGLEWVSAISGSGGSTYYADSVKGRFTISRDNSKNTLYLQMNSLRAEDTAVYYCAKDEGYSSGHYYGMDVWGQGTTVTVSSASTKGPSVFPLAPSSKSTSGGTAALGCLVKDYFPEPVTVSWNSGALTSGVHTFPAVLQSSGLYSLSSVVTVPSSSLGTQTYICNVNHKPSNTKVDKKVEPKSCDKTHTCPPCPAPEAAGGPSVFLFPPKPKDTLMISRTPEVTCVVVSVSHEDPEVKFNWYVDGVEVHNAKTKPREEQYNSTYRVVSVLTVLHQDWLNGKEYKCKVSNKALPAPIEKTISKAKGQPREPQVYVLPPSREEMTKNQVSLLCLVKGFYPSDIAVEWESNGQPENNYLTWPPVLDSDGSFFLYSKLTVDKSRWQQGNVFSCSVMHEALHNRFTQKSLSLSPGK
light: B6 light
For the molecule B7, the “EC50 of γδ T-cell mediated cytotoxicity of H929 tumor cells” value in assay [12] stood at 3.2 nM.

Values taken from patent US20220306739A1 (Janssen / Centocor, published 2022).
